This series deals with the molecule itself. The experiment in a line: SEC.

B1: FasR from Mycobacterium tuberculosis, full-length (hexa-histidine-TEV-tagged construct, tag cleaved) (natural protein)
chain: MSDLAKTAQRRALRSSGSARPDEDVPAPNRRGNRLPRDERRGQLLVVASDVFVDRGYHAAGMDEIADRAGVSKPVLYQHFSSKLELYLAVLHRHVENLVSGVHQALSTTTDNRQRLHVAVQAFFDFIEHDSQGYRLIFENDFVTEPEVAAQVRVATESCIDAVFALISADSGLDPHRARMIAVGLVGMSVDCARYWLDADKPISKSDAVEGTVQFAWGGLSHVPLTRS
As usually defined, the stoichiometry N is a count of units in the complex or per binding partner. With B1, the “stoichiometry N” value turned out to be 2.

B2: His-tagged FasR (FasRwt, from pET28_fasRH) (natural protein)
chain: MSDLAKTAQRRALRSSGSARPDEDVPAPNRRGNRLPRDERRGQLLVVASDVFVDRGYHAAGMDEIADRAGVSKPVLYQHFSSKLELYLAVLHRHVENLVSGVHQALSTTTDNRQRLHVAVQAFFDFIEHDSQGYRLIFENDFVTEPEVAAQVRVATESCIDAVFALISADSGLDPHRARMIAVGLVGMSVDCARYWLDADKPISKSDAVEGTVQFAWGGLSHVPLTRS
notes: not shown: His6, N-terminal, kept
Regarding B2, the “stoichiometry N” value turned out to be 2.
